Assays:
human Nectin-4 [1] = assay: ELISA on coated Nectin-4 Fc fusion proteins (Nec4-VCC, Nec4-V); type: binding; conditions: statement in FIG. 3 legend on the competitor mAbs
Description: Detection by ELISA. • Ninety-six-wells plates were coated, as indicated, with 5 μg/mL Nectin-1 extracellular domain Fc fusion recombinant protein (Nec1-VCC), or Nectin-4 IgV-like domain Fc fusion recombinant protein (Nec4-V), or Nectin-4 extracellular domain Fc fusion recombinant protein (Nec4-VCC) overnight at 4° ° C.
FIG. 3: Characterization of Ch-15A7.5 epitope. Competition assay was performed by ELISA. • Ninety-six-wells plates were coated with 5 μg/mL of Nectin-4 extracellular domain Fc fusion recombinant protein (Nec4-VCC) overnight at 4° C. Binding of peroxidase-conjugated Ch-15A7.5 mAb (5 μg/mL) was measured in presence of increasing concentrations (2.75 ng/ml-6 μg/mL) of Rituximab, Ch-15A7 mAb, Enfortumab (HA22), Ch-N41 mAb and Ch-14A5 mAb.
A sandwich enzyme-linked immunosorbent assay was used to control specificity of Ch-15A7.5 antibody and to perform competition assays between different mAbs. Ninety-six-wells plates were coated with 10 nM of Nectin-4-VCC-Fc, Nectin-1-VCC-Fc (entire extracellular part) or Nectin-4-V-Fc (comprising only the IgV domain) overnight at +4° C. After washes and saturation with PBS 1% BSA, cells were incubated for 2 hours at 25° C. with 10 nM of peroxidase-conjugated Ch-15A7.5 mAb. In the case of competition, binding of 0.5 nM of peroxidase conjugated Ch-15A7.5 mAb was measured in the presence of variable concentration (0.018 nM to 40 nM) of “cold” mAb. One hundred μL of peroxidase substrate was added (One Step ABST, Pierce), and OD was red at 405 nm.

human Nectin-4 [2] = assay: Flow cytometry of MDA-MB231 transfected with Flag-tagged Nectin-4; type: binding; conditions: MDA-MB231 transfected with Nectin-4, 0.3 ng/ml-5 μg/mL
Description: Detection by flow cytometry. • Flow cytometry analysis of MDA-MB231 transfected with the N-terminal Flag-tagged epitope of Nectin-4 using a dose range (0.3 ng/ml-5 μg/mL) of Ch-15A7.5 or Ch-5A12.2 antibodies Parental MDA-MB231 cells are included as controls. Cells were then stained with phycoerythrin conjugate goat anti human Fc antibody. The normalized mean fluorescence intensity is shown. Inlay: staining of parental MDA-MB231 cells with anti Nectin-1, -2 and -3 mAbs ([…]). Mean fluorescence intensity is represented.
Human breast carcinoma cell line MDA-MB231 (ATCC, Manassas, VA) was cultured in DMEM supplemented with 10% fetal bovine serum, 50 IU/mL penicillin, 50 μg/mL streptomycin and 2 mM glutamine. The cells were transfected with expression vector p3XFLR4.C1 containing a PVRL4 cDNA. Human triple negative breast cancer cell line SUM190PT (BioIVT, Westbury, NY) was cultures in Ham's F12 medium with 5% fetal bovine serum, 1% non-essential amino acids, 1% Hepes, 1% insulin, 1 μg/mL hydrocortisone, 6.8 ng/ml Triiodo L-tyrosine, 100 IU/mL penicillin, 100 μg/mL streptomycin and 2 mM glutamine. Chinese hamster ovary CHO cell line was cultured in DMEM supplemented with 10% fetal bovine serum, 100 IU/mL penicillin, 100 μg/mL streptomycin and 2 mM glutamine. […]

[3] = molecular target: T1, Nectin-4 expressed by tumors and Nectin-4 expressed by human keratinocytes (Homo sapiens, UniProt Q96NY8); assay: Differential binding to tumor cells and human keratinocytes; conditions: in vitro differentiated Nectin-4 expressing keratinocytes
T1 construct: Cells or cell lines (10,000-50,000) expressing Nectin-4 (naturally or transfected); endogenous in cells; host or cells: SUM190/SUM190PT (also SUM149 in IHC), NHEK differentiated with 0.1 mM CaCl2, human skin sections
T1 sequence (Q96NY8 32-510): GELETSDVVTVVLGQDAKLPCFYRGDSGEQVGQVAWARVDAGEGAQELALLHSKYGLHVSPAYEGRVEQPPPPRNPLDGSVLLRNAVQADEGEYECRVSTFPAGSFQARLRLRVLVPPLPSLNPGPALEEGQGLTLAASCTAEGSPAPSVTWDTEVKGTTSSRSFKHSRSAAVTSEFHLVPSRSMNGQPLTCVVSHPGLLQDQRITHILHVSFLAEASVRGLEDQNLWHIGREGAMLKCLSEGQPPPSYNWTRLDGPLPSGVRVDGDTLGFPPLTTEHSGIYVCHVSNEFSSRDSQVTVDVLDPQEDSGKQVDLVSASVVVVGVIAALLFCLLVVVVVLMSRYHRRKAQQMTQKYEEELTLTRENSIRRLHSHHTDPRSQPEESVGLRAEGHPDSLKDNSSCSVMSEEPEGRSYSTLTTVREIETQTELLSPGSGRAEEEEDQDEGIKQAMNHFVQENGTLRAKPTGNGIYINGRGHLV
From the text: FIG. 6: Differential binding to Nectin-4 expressed by tumor cell line and normal differentiated human keratinocytes. […] Cells were then stained with phycoerythrin conjugate goat anti human Fc antibody. Normalized mean fluorescence intensities are shown. Non-linear curve fitting (4 parameters) was done with GraphPad Prism 9 software. Horizontal bar is placed at 50% of maximum staining intensity obtained with HA22 antibody on SUM190 cells.
FIG. 7: Differential binding to Nectin-4 expressed by tumor cell line and normal differentiated human keratinocytes. Detection by flow cytometry. • Flow cytometry analysis of TNBC cell line (SUM190, A) and normal differentiated (0.1 mM CaCl2) human keratinocytes (NHEK, B) using 5 μg/mL of HA22 (Enfortumab), Ch-5A12.2, Ch-15A7.5, and Ch-8F06. Cells were then stained with phycoerythrin conjugate goat anti human Fc antibody. Normalized mean fluorescence intensities are shown.
FIG. 8: Differential binding to Nectin-4 expressed by tumor cell line and human keratinocytes. Detection by immuno-histochemistry. Cryo-preserved OCT-embedded blocks of high expressing levels of Nectin-4 tumor cell line (SUM190), low expressing levels of Nectin-4 tumor cell line (SUM149), human and cynomolgus skin were processed for staining with 15A7.5 mAb (A) and 9A2.7 mAb (B). Quick score reported for each mAb are shown (A, B). C, ratio of quick score SUM190 over human skin. […]
Remaining blocks were stored at −80° C. until further use. […] Several dilution of each mAb were tested to optimize noise to signal ratio and 0.5 μg/ml of mouse 15A7.5 mAb and 10 µg/mL of mouse 9A2.7 mAb were determined as optimal. […] Both the stained cells proportion and the staining intensity were evaluated for each field. […] Scoring procedure was as follows: (i) The proportion of cells stained positively was estimated and a score from 0 to 4 was be assigned for each field (0=0-5%; 1=5-25%; 2=25-50%; 3=50-75%; and 4=75-100%); and (ii) The staining intensity was scored as 0, 1, 2, or 3 corresponding to the presence of negative, weak, intermediate, and strong brown staining, respectively. […]

SUM190PT cells = assay: SUM190PT orthotopic xenograft in NSG mice; type: in vivo, mouse; conditions: SUM190 grafted NSG mice, single intravenous injection, 4 or 8 mg/kg
From the text: Treatment of mice (single intravenous injection) started when tumors reached approximately 150 mm^3. […] Tumor sizes (n=10/group) were monitored with a caliper twice a week thereafter and sizes were reported with the following formula (LxlxhxPi/6).
NOD/SCID (nonobese diabetic/severe combined immunodeficient)/gc null mice (NSG) were obtained from Charles River Laboratory (Margate, UK). Six to seven-weeks old females (n=5/group) were orthotopically xenografted bilaterally with the SUM190PT (0.5×10^6) cells embedded in Matrigel. Treatment with ADC was performed as mentioned in the respective experiments. Tumor sizes (n=10/group) were monitored with a caliper twice a week thereafter and sizes were reported with the following formula (LxlxhxPi/6).

B1: HA22: human monoclonal anti-Nectin-4 antibody described in WO2012/047724, antibody of Enfortumab vedotin (antibody, V domains shown)
VH: EVQLVESGGGLVQPGGSLRLSCAASGFTFSSYNMNWVRQAPGKGLEWVSYISSSSSTIYYADSVKGRFTISRDNAKNSLSLQMNSLRDEDTAVYYCARAYYYGMDVWGQGTTVTVSS
VL: DIQMTQSPSSVSASVGDRVTITCRASQGISGWLAWYQQKPGKAPKFLIYAASTLQSGVPSRFSGSGSGTDFTLTISSLQPEDFATYYCQQANSFPPTFGGGTKVEIK
- recognition of the IgV domain of Nectin-4 (human Nectin-4 [1]): recognize the IgV domain of Nectin-4

B2: Ch-5A12.2: chimeric antibody of 5A12.2 (antibody, V domains shown)
VH: QIQLQQSGAELVKPGASVTLSCKTSGFTFNSMYISWLKQKPGQSLEWIAWIYAGTGGTRFNQKFTGKVQLTVDTSSSTAYMQFSSLTTDDSAIYYCAIRSGFVPMDYWGQGTSVTVSS
VL: SIVMTQTPKFLLVSAGDRVTITCKASQSVSNDVAWYQQKPGQSPKLLIYYASNRYTGVPDRFTGSGYGTDFTFTISTVQAEDLAVYFCQQDYSSPWTFGGGTKLEIK
- recognition of human Nectin-4 (human Nectin-4 [2]): recognize human Nectin-4

B3: mAb 3A1.4: monoclonal anti-Nectin-4 antibody characterized by SEQ ID NO:s 96-103 (antibody, V domains shown)
VH: DVQLQESGPSLVKPSQTLSLTCSVTGDSITSGYWNWIRKFPGNKLEYMGYISNSGITYYNPSLKSRISITRDTSKNQYFLQLNSVTAEDTATYYCTRFGSTMILYYTMDYWGQGTSVTVSS
VL: DIVMTQSPVTLSVTPGDRVSLSCRASQSISDYLHWYQQKSQESPRLLIKYASKSISGIPSRFSGSGSGSNFTLSINSVEPEDVGVYYCQNGHSFPLTFGAGTKLELK
modifications: VH_3A1.4; VK_3A1.4
- affinity to Nectin-4 expressed by tumors in comparison to Nectin-4 expressed by human keratinocytes [3]: higher affinity

B4: HA22-MC-GGFG-DX8951 (conjugate, chains of the INN, looked up)
VH: EVQLVESGGGLVKPGGSLKLSCAASGFAFSIYDMSWVRQTPEKCLEWVAYISSGGGTTYYPDTVKGRFTISRDNAKNTLYLQMSSLKSEDTAMYYCARHSGYGTHWGVLFAYWGQGTLVTVSA
VL: DIQMTQTTSSLSASLGDRVTISCRASQDISNYLNWYQQKPDGTVKLLIYYTSILHSGVPSRFSGSGSGTDYSLTISNLEQEDFATYFCQQGNTLPWTFGCGTKLEI
modifications: MC-GGFG-DX8951 (exatecan) payload
- tumor regression (SUM190PT cells): induces a long-lasting tumor regression period

Source: US20240173424A1, “ANTI-NECTIN-4-ANTIBODY EXATECAN CONJUGATES” (EMERGENCE THERAPEUTICS AG, priority 2021, published 2024)
